Reference: patent publication US20180217151A1 (MILTENYI BIOTEC, published 2018)
Positions count from the first letter of the chain named. Each block holds one binder with its values, some of them ahead of it.

Legend:
Experiment in all cases: SPR (Biacore), recombinant antigen (extracellular domain) immobilized by amine coupling, Fab as analyte, 1:1 binding mass transfer model
recombinant CD4 antigen = target: T1, recombinant CD4 antigen ( (the Fab labels human PBMCs), UniProt P01730)
T1 construct: extracellular domain; also called CD4, recombinant extracellular domain
Procedure: (§1) FIGS. 7A and 7B show surface plasmon resonance sensorgrams of anti-CD25 rFabs using immobilized recombinant CD25 antigen. At t 110 sec, different concentrations of Fab were injected for 180 sec. At t 290 sec, the dissociation phase started.
(§2) The Fab variants of example 1 and 4 were analyzed by surface plasmon resonance spectroscopy (Biacore™). Therefore, the specific recombinant antigen (extracellular domain, expressed in mammalian cells) for a Fab was immobilized on a CMS chip by standard amine coupling. The Fab variants were used as analytes in HBS-EP buffer (0.01 M HEPES pH 7.4, 0.15 M NaCl, 3 mM EDTA, 0.005% v/v Surfactant P20) in a concentration of up to 2 μM Fab. Evaluation was conducted with the Biacore™ X-100 Evaluation Software using an 1:1 binding mass transfer model.

recombinant CD25 antigen = target: T2, recombinant CD25 antigen ( (the Fab labels human PBMCs), UniProt P01589)
T2 construct: extracellular domain; also called immobilized recombinant CD25 antigen; CD25, recombinant extracellular domain
T2 sequence (antigen, looked up): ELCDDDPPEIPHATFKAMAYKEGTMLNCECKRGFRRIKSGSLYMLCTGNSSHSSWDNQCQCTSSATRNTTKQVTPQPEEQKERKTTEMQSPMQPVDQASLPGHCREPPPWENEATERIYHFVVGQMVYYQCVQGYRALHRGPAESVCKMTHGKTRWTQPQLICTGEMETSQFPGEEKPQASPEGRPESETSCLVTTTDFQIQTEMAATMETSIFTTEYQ
Procedure: as §1, §2

[1] = target: T3, recombinant CD45RA antigen ( (the Fab labels human PBMCs))
T3 construct: extracellular domain; also called CD45RA, recombinant extracellular domain
Procedure: as §1, §2

recombinant CD3 antigen = recombinant CD3 antigen ( (the Fab labels human PBMCs))
Chain of recombinant CD3 antigen ( (the Fab labels human PBMCs)) (chain, as listed by the source): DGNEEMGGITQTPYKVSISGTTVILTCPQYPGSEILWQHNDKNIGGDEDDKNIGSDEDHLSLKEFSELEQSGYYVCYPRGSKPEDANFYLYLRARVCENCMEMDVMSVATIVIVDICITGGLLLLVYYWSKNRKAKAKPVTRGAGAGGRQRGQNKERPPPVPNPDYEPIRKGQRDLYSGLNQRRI
Procedure: as §1, §2

recombinant CD28 antigen = target: T4, recombinant CD28 antigen ( (the Fab labels human PBMCs), UniProt P10747)
T4 construct: extracellular domain; also called CD28, recombinant extracellular domain
Procedure: as §1, §2

B2: RFT5 rFab (Fab, V domains shown)
VH: EVQLQQSGTVLARPGASVKMSCKASGYSFTRYWMHWIKQRPGQGLEWIGAIYPGNSDTSYNQKFEGKAKLTAVTSASTAYMELSSLTHEDSAVYYCSRDYGYYFDFWGQGTTLTVSS
VL: QIVLTQSPAIMSASPGEKVTMTCSASSSISYMQWYQQKPGTSPKRWIYDTSKLASGVPARFSGSGSGTSYSLTISSMEAEDAATYYCHQRSSYTFGGGTKLEIKR
modifications: For the cell assay: biotin (thiol-reactive reagent) on cysteine(s) of the reduced disulfide bridge, position not stated
notes: Recombinant Fab from E. coli; heavy chain optionally followed by a poly-histidine tag; Biotinylated for the cell assay; also called anti-CD25 rFab (based on clone RFT5)
Kd (recombinant CD25 antigen): 0.2 nM
koff (recombinant CD25 antigen): 0.00038 s⁻¹
kon (recombinant CD25 antigen): 1.9e+06 M⁻¹ s⁻¹

B4: MEM56-LAV rFab (Fab, V domains shown)
VH: QVQLQQSGAELAKPGASVKMSCKASGYNFTRYWMHWIKQRPGQGLEWIGYINPNTGHTEYNQKFKDKATLTADKSSSTAYMQLSSLTSEDSAVYYCATYYYGSRRDAGQGTTLTVSS
VL: QIVLTQSPAIMSASLGERVTMTCTTSSSVSSSYLHWYQQKPGSSPKLWIYSTSNLASGVPARFSGSGSGTSYSLTISTVEAEDAATYYCHQYHRSPLTFGAGTKLELKR
modifications: In the cell assay the Fab was biotinylated with a thiol-reactive reagent (e.g. maleimide-PEO2-biotin) on cysteines of the reduced disulfide bridge; positions not stated.
notes: Recombinant Fab from E. coli; heavy chain optionally followed by a poly-histidine tag; Biotinylated for the cell assay; also called mutated variant of anti-CD45RA clone MEM56
Kd [1]: 1300 nM
koff [1]: 0.11 s⁻¹
kon [1]: 88000 M⁻¹ s⁻¹

B6: 15E8-hum rFab (Fab, V domains shown)
VH: QVQLQESGPGLVKPSETLSLTCTVSGFSLTSYGVHWIRQPPGKGLEWLGVIWAGGSTNYNSSLKSRVTISKDTSKNQVSLKLSSVTAADTAVYYCARDKRAPGKLYYGYPDYWGQGTTLTVSS
VL: DIVMTQSPDSLAVSLGERATINCRASESVEYYVTSLMQWYQQKPGQPPKLLIYAASNVESGVPARFSGSGSGTDFTLTISPLQAEDVAVYYCQQTRKVPSTFGGGTKLEIKR
modifications: For the cell assay: biotin (thiol-reactive reagent) on cysteine(s) of the reduced disulfide bridge, position not stated
notes: Recombinant Fab from E. coli; heavy chain optionally followed by a poly-histidine tag; Biotinylated for the cell assay; also called humanized variant of anti-CD28 clone 15E8
Kd (recombinant CD28 antigen): 21 nM
koff (recombinant CD28 antigen): 0.089 s⁻¹
kon (recombinant CD28 antigen): 4.3e+06 M⁻¹ s⁻¹

Next, values leading:

Kd (recombinant CD4 antigen): 15000 nM
koff (recombinant CD4 antigen): 0.006 s⁻¹
kon (recombinant CD4 antigen): 410 M⁻¹ s⁻¹
B1: 13B8.2-LAV rFab (Fab, V domains shown)
VH: QVQLKQSGPGLVQPSQSLSITCTVSGFSLTTFGVHWVRQSPGKGLEWLGVIWASGITDYNVPFMSRLSITKDNSKSQVFFKLNSLQPDDTAIYYCAKNDPGTGFAYWGQGTLVTVSA
VL: DIQMTQSPASLSASVGETVTFTCRASENIYSYLAWYQQKQGKSPQLLVHDAKTLAEGVPSRFSGGGSGTQFSLKINTLQPEDFGTYYCQHAYGNPPTFGGGTKLEIKR
modifications: For the cell assay: biotin (thiol-reactive reagent) on cysteine(s) of the reduced disulfide bridge, position not stated
notes: Recombinant Fab from E. coli; heavy chain optionally followed by a poly-histidine tag; Biotinylated for the cell assay; also called mutated variant of anti-CD4 clone 13B8.2

Kd (recombinant CD25 antigen): 21 nM
koff (recombinant CD25 antigen): 0.21 s⁻¹
kon (recombinant CD25 antigen): 1e+07 M⁻¹ s⁻¹
B3: RFT5-LAV rFab (Fab, V domains shown)
VH: B2 VH with H35A, W107A
VL: B2 VL
modifications: For the cell assay: biotin (thiol-reactive reagent) on cysteine(s) of the reduced disulfide bridge, position not stated
notes: Recombinant Fab from E. coli; heavy chain optionally followed by a poly-histidine tag; Biotinylated for the cell assay; also called mutated variant of anti-CD25 clone RFT5

Kd (recombinant CD3 antigen): 46 nM
koff (recombinant CD3 antigen): 0.19 s⁻¹
kon (recombinant CD3 antigen): 4.1e+06 M⁻¹ s⁻¹
B5: OKT3-hum rFab (Fab, V domains shown)
VH: QVQLVQSGGGVVQPGRSLRLSCKASGYTFTRYTMHWVRQAPGKGLEWIGYINPSRGYTNYNQKVKDRFTISRDNSKNTAFLQMDSLRPEDTGVYFCARYYDDHYSLDYWGQGTPVTVSS
VL: DIQMTQSPSSLSASVGDRVTITCSASSSVSYMNWYQQTPGKAPKRWIYDTSKLASGVPSRFSGSGSGTDYTFTISSLQPEDIATYYCQQWSSNPFTFGQGTKLQITR
modifications: For the cell assay: biotin (thiol-reactive reagent) on cysteine(s) of the reduced disulfide bridge, position not stated
notes: Recombinant Fab from E. coli; purified by IMAC; also called humanized variant of anti-CD3 clone OKT3; anti-CD3 rFab
